Ends that are not written are not given here.
B1: CHCHD4/MIA40 peptide (unlabeled), GSEGKDRIIFVTKEDHETPSSAEL-NH2 (peptide)
peptide: GSEGKDRIIFVTKEDHETPSSAEL-NH2
B2: recombinant full-length MIA40/CHCHD4^C4S,C53S,C55S (natural protein)
chain: MSYSRQEGKDRIIFVTKEDHETPSSAELVADDPNDPYEEHGLILPNGNINWNSPSLGGMASGPCGEQFKSAFSCFHYSTEEIKGSDCVDQFRAMQECMQKYPDLYPQEDEDEEEEREKKPAEQAEETAPIEATATKEEEGSS

What was measured:
[1] = biological target: T1, 6xHis-tagged AIFM1(103–613) (UniProt O95831 103-613); test: ITC
[2] = biological target: T1, 6xHis-tagged AIFM1(103–613); test: ITC; remark: listed apart in the source

T1 sequence (O95831 103-613): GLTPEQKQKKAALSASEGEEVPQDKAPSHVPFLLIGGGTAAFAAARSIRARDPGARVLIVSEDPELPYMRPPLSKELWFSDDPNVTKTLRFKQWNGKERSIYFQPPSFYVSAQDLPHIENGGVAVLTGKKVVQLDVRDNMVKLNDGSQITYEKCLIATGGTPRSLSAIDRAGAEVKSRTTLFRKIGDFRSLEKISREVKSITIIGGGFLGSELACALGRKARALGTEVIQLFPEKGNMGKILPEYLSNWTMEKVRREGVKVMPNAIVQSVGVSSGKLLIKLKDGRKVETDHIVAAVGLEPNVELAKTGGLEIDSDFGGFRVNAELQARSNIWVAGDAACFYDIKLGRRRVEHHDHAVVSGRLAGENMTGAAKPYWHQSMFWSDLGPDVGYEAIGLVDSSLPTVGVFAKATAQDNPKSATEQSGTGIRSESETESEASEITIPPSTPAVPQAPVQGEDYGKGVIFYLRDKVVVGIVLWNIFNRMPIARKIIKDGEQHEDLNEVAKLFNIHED

Row | Binder | Kd [1] [nM] | stoichiometry N [2] [AIFM1 per MIA40/CHCHD4]
1 | B1 | 2940 | 
2 | B2 |  | 2

Source: publication PMC9434101 (The EMBO Journal, 2022)
